According to patent US11230704B2, “Oxidation of highly unsaturated fatty acids with novel 8-lipoxygenase derived from Malacostraca” (Bizen Chemical Co., Ltd., priority 2018, dated 2022):

How the values were obtained:
[1] = tested on: peroxisome proliferator-activated receptor (PPAR); settings: background statement, Non Patent Literature 1; cited from earlier work
[2] = Measurement of activity of PK LOX1: EPA added to medium of PK LOX1 expressing Sf9 insect cells, LC-QTOFMS of cell extract; format: cell-based
Method: (§1) A P1 baculovirus stock prepared by cryopreserving a culture supernatant of Sf9 insect cells transduced with bacmid expressing PK LOX1 was added to a medium of Sf9 insect cells and cultured for 1 week. 50 μM of arachidonic acid, eicosapentaenoic acid, or docosahexaenoic acid was added to the medium of baculovirus infected cells, and the cells were centrifuged and collected after 4 hours of culture. After removing the medium from the Sf9 cells and adding acetonitrile to the cells and sonicating the cells, the solution was centrifuged for 10 minutes at 20,000 g, and the supernatant was used as an extract. 5 μL of the extract was subjected to high performance liquid chromatography/mass spectrometry system (LC-QTOFMS: Agilent) to analyze 8-HETE, 8-HEPE, and 10-HDoHE. […] The 8-HETE content after adding an arachidonic acid, 8-HEPE content after adding an eicosapentaenoic acid, and 10-HDoHE content after adding a docosahexaenoic acid are higher in a PK LOX1 expressing Sf9 insect cell extract compared to an extract of EGFP expressing Sf9 insect cells used as a control. It was confirmed that 8-HETE, 8-HEPE, and 10-HDoHE production is induced by PK LOX1 expression (FIG. 6C).

[3] = Measurement of activity of PK LOX1: docosahexaenoic acid added to medium of PK LOX1 expressing Sf9 insect cells, LC-QTOFMS of cell extract; format: cell-based; settings: 50 μM, 4 hours; FIG. 6C
Method: as §1

[4] = Measurement of activity of PK LOX1: arachidonic acid added to medium of PK LOX1 expressing Sf9 insect cells, LC-QTOFMS of cell extract; format: cell-based; settings: 50 μM, 4 hours; FIG. 6C
Method: as §1

[5] = Measurement of activity of PK LOX2: thawed PK LOX2 expressing Sf9 cell pellets incubated with EPA, LC-QTOFMS; format: biochemical, Sf9 cells
Method: A baculovirus stock expressing PK LOX2 obtained by the same method as PK LOX1 in Example 3 was prepared. Sf9 cells were infected therewith. After washing the Sf9 cells after two days from infection with PBS and centrifuging the cells at 1500 g, the cells were frozen at −80° C. after removing the PBS. 50 μL of 200 mM Tris-HCl (pH of 7.4) supplemented with EPA at a concentration of 50 μM was added to PK LOX2 expressing Sf9 cell pellets thawed on ice, and the pellets were incubated for 4 hours at 27° C. After adding 150 μL of acetonitrile (containing 1% formic acid) to the incubated solution and vortexing the solution, the solution was centrifuged for 10 minutes at 4° C. at 20,000 g. The supernatant was collected and 5 μL thereof was subjected to LC-QTOFMS to analyze 8-HEPE.

CCC=CCC=CCC=CC=CC(O)CC=CCCCC(=O)O (centres unmarked) [8-HEPE, 8-hydroxyeicosapentaenoic acid]
PPAR activating action compared with EPA [1]: higher peroxisome proliferator-activated receptor (PPAR) activating action than EPA

B1: PK LOX1: lipoxygenase isolated from Euphausia pacifica, 691 amino acids, SEQ ID NO: 2, expressed His-tagged in Sf9 insect cells (protein, listed as Euphausia pacifica)
chain: MAPIKEKKSFKLTAATGNQDGAGTDANVYVTFEDEEGRRTKEKKLDKLLYNDLEKGKKDKYDINAPVEFGAVKKLHVHRDSTGLGDSWFCDYFEIKDLRFKGNNNEPSPTKKEYYYFPIHRWISSQHRYEFDEYGTCLPQADPCIGPRKADLEAKKSSYNYVYRIGAMAATDTTDACVGHCAQVETLPADEKFSEDYYWNFATDKLKLLAETKWMEWTNQTKWNSLSDLRSVYKKSLGEPKCLDVWREDWWFGLQRLQGVNPVIIELCTQIPDNLAVTDTTVEGLMDDLTLNEALENKKIFICDLKIMDGLCCKENRELAAPLALFYLNKENKLLPIALQLKQEKGDDNPVFTPKDSKNTWLVAKMFYNNSEAQHHQALTHLGYTHLLMEGVVVCTHRNLSPSHPLFKLMAPHFLFLLAINSRGLEKLVSEGGWVDCCMTQGLCGILDLMKRGFEAWTYTKFGSVSAELEARGVLNKDVLPYYPYRDDALPLFAEIRKYVKTIVEHHYDNEDKMKEDWELKSWREELAKQRSENGVGLADIPGSKEDGFNSVDEVVDVVTMIISTCSLGHAASNFQQYEQYGYVPNYPGILMSTLPKEKKEYTEEEIMQILPDKRMTLDIMVITKLLSTKGTQSLGDFEMQYLYDPVGVQAAKDFRKNLDRLSKKNKLENVDRQWDFDWLDPEFVPNAISV
modifications: His tag
8-HEPE content after adding an eicosapentaenoic acid, compared to extract of EGFP expressing Sf9 insect cells (control) ([2]; 50 μM, 4 hours, FIG. 6C): higher | production of 8-HEPE in cell extract ([2]; EPA 50 μM added, 4 hours of culture, FIG. 6A): Production of 8-HEPE was observed | activity compared with specific activity of lipoxygenases known in the art ([2]; PK LOX1 expressing Sf9 cells): markedly stronger than the specific activity of lipoxygenases known in the art | position specificity of oxidation of EPA ([2]; only one peak of m/z=317.22, retention time and MS/MS match 8-HEPE standard, FIG. 6A, 6B): catalyzed position 8 specific oxidation of EPA | specific activity of lipoxygenase (8-HEPE/PK LOX1 expressing Sf9 cell protein) ([2]; printed as 'up to about', 50 μM substrate, 4 hours of culture, FIG. 6C): about 2.5 μg/mg | 10-HDoHE content after adding a docosahexaenoic acid, compared to extract of EGFP expressing Sf9 insect cells (control) [3]: higher | 8-HETE content after adding an arachidonic acid, compared to extract of EGFP expressing Sf9 insect cells (control) [4]: higher

B2: PK LOX2: lipoxygenase isolated from Euphausia pacifica, 686 amino acids, SEQ ID NO: 4, expressed His-tagged in Sf9 insect cells (protein, listed as Euphausia pacifica)
chain: MVALRCFKPEEMHIFTICGLFLAAMEVSNAYLCNNNFLVTVKTGYGTDAGSNASVILVLEDQNRNEIRNWLSIPKQDETGNHRIPIPTSFGRIVTVELALDYKLAPDWYCEDIFIEDPRLNDRLYFPIDRRIQGNQFYDFQNYATCLPQFDQNSISRRLTLQKKREDYQLSYDRTAAMVKDLPQDEIFHQDYISSIRAIQKTSIDDQIPLLQAWQSSNNISAFFGGDFYMPQSIQFWKEDAWFGAQRVQGIVPNIIELCKQIPDKLGVTEDTISGLLEGSTLQQALKNNKIFISDLELLDGIQYSGVWSDNADHAAPISVFYLNKIDQLMPIAIQLRQQKGPKNPVYTPKDPPNTWLVAKIYYNNAESQFHQILVHFGYTHMIMDGIATSMNRQLSPSHPVFKILKPHFLYLLAINRLGEQELFVPQGVFPYFSIGLDGMNQLLAKAVPQFTLARAIGSVESDARARGVWDKQVLPYYPFRDDAHSMYNIIKKYATKVIYYYYNTPGKIINDMELQRWRTELAKPRAQGGVGIPDLPGSDTAGFRDINEIIDLVTTIITHSSVGHAAVNFPMYDTYGYFPNYPPDLNEGPPLQKMLYTEDEIMSLFPNGSHAFRVRATIRVLSWQGTNDCGDFEKIYLYDPVSQEAQVELRKDLAMFSKEVMNRNSKRFIPYKYLDPNYVPNAISI
modifications: His tag
8-HEPE production ([5]; EPA 50 μM, 4 hours at 27° C., FIG. 7): 8-HEPE production was observed | activity compared with specific activity of lipoxygenases known in the art ([5]; PK LOX2 expressing Sf9 cells): markedly stronger than the specific activity of lipoxygenases known in the art | specific activity of lipoxygenase (8-HEPE/PK LOX2 expressing Sf9 cell protein) ([5]; printed as 'up to about', EPA 50 μM, 200 mM Tris-HCl pH 7.4, 4 hours at 27° C., FIG. 7): about 3.2 ng/mg
